In US20070003546A1:

Key:
[1] = target: His-tagged V158 FcγRIIIa (human) (UniProt P08637); experiment: SPR, receptor immobilized
[2] = target: extracellular region of human V158 FcγRIIIa fused with glutathione S-Transferase (GST) (human) (UniProt P08637); experiment: AlphaScreen competition
[3] = target: FcγRIIIa on human PBMCs expressing heterozygous V158/F158 FcγRIIIa (human) (UniProt P08637); experiment: cell-based or functional assay

Sequence of extracellular region of human V158 FcγRIIIa fused with glutathione S-Transferase (GST) (human) (P08637 17-208 F176V): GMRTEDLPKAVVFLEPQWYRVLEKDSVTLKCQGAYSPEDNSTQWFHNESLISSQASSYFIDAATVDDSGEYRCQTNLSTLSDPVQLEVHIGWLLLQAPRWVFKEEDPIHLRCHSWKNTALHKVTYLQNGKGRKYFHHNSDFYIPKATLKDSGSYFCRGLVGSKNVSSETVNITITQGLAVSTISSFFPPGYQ
Sequence of His-tagged V158 FcγRIIIa (human) (P08637 17-208 F176V limits assumed): as the sequence (P08637 17-208 F176V) above

Row | Substance | FcγRIIIa Fold [2] | further results
1 | WT alemtuzumab (antibody) |  | Kd [1]: 68 nM
2 | alemtuzumab I332E (antibody) |  | Kd [1]: 31 nM
3 | alemtuzumab S239D/I332E (antibody) |  | ADCC EC50 (DELFIA EuTDA, DoHH-2 target cells) [3]: 3 ng/mL
4 | alemtuzumab S298A (antibody) |  | Kd [1]: 52 nM
5 | alemtuzumab S298A/E333A/K334A (antibody) |  | Kd [1]: 39 nM
6 | alemtuzumab V264I (antibody) |  | Kd [1]: 64 nM
7 | alemtuzumab V264I/I332E (antibody) |  | ADCC EC50 (DELFIA EuTDA, DoHH-2 target cells) [3]: 4 ng/mL; Kd [1]: 17 nM
8 | trastuzumab E283R (antibody) | 0.67 fold | 
9 | trastuzumab E333H (antibody) | 0.75 fold | 
10 | trastuzumab E333T (antibody) | 0.78 fold | 
11 | trastuzumab K274E (antibody) | 6.11 fold | 
12 | trastuzumab K274R (antibody) | 1.41 fold | 
13 | trastuzumab K274Y (antibody) | 1.06 fold | 
14 | trastuzumab K326T (antibody) | 1.88 fold | 
15 | trastuzumab N276Y (antibody) | 0.56 fold | 
16 | trastuzumab P230A/E233D (antibody) | 0.92 fold | 

Row | Substance | FcγRIIIa Fold [2] | further results
17 | trastuzumab P230A/E233D/I332E (antibody) | 1.87 fold | 
18 | trastuzumab S239D/A330Y/I332E/K326E (antibody) | 64.1 fold | 
19 | trastuzumab S239D/A330Y/I332E/L234I (antibody) | 22.4 fold | 
20 | trastuzumab S239D/A330Y/I332E/L235D (antibody) | 7.04 fold | 
21 | trastuzumab S239D/I332E/A330I (antibody) | 59.1 fold | 
22 | trastuzumab S324R (antibody) | 0.71 fold | 
23 | trastuzumab S324Y (antibody) | 0.98 fold | 
24 | trastuzumab T335D (antibody) | 2.79 fold | 
25 | trastuzumab T335R (antibody) | 2.58 fold | 
26 | trastuzumab T335Y (antibody) | 1.56 fold | 
27 | trastuzumab V240I/V266I (antibody) | 1.72 fold | 
28 | trastuzumab V273I (antibody) | 0.79 fold | 
29 | trastuzumab V302I (antibody) | 1.01 fold | 
30 | trastuzumab V323I (antibody) | 0.83 fold | 
31 | trastuzumab Y278E (antibody) | 0.9 fold | 
32 | trastuzumab Y278T (antibody) | 1.87 fold | 

The next lines start with results.

Row | FcγRIIIa Fold [2] | Substance | further results
33 | 0.27 fold | alemtuzumab A298H (antibody) | 
34 | 0.85 fold | trastuzumab E233D (antibody) | 
35 | 8.7 fold | trastuzumab E272Y (antibody) | 
36 | 1.06 fold | trastuzumab E318R (antibody) | 
37 | 1.11 fold | trastuzumab F275W (antibody) | 
38 | 1.09 fold | trastuzumab K274L (antibody) | 
39 | 1.41 fold | trastuzumab K274T (antibody) | 
40 | 1.43 fold | trastuzumab K326I (antibody) | 
41 | 0.07 fold | trastuzumab L234I/L235D (antibody) | 
42 | 0.87 fold | trastuzumab N276E (antibody) | 
43 | 0.66 fold | trastuzumab N276R (antibody) | 
44 | 0.41 fold | trastuzumab N276S (antibody) | 
45 | 1.09 fold | trastuzumab P230A (antibody) | 
46 | 28 fold | trastuzumab S239D/A330Y/I332E/V240I (antibody) | 
47 | 17.7 fold | trastuzumab S239D/A330Y/I332E/V264T (antibody) | 
48 | 1.17 fold | trastuzumab S324V (antibody) | 
49 | 0.41 fold | trastuzumab Y278W (antibody) | 
